Test results taken from patent publication US12195506B2, “Immunotherapy with A*01 restricted peptides and combination of peptides against cancers and related methods” (Immatics Biotechnologies GmbH, priority 2018, dated 2025).

The substances below were run against HLA-A*01:01 (Homo sapiens, UniProt P04439, A114D/A174V/A182V/D101N/D185E/E176A/E190D/L180R/Q94H/R68K/S129P/T187R/V100A/V91M/W191G) (assay: MHC binding assay: UV-ligand exchange, ELISA of stabilized MHC complexes (peptide exchange yield)). Conditions: binding to HLA-A*01:01, UV-ligand exchange.
Procedure, shortened: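 Peptide–MHC complexes were formed by UV-induced exchange of a photocleavable ligand for the test peptide. Exchange yield was measured by streptavidin-capture ELISA of 100-fold diluted complexes, detected with HRP anti-β2m at A450. Refolded HLA-A*02:01/MLA-001 monomers at 15-500 ng/ml served as standards.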

Substance	Peptide exchange
257 (KSEMNVNMKY; listed as Homo sapiens) [compound 257]	++++ (>75% = ++++)
258 (RPSSVLTIY; listed as Homo sapiens) [compound 258]	+++ (>50 = +++)
259 (APDEVVALL; listed as Homo sapiens) [compound 259]	++ (>20% = ++)
260 (KPTEDSANVY; listed as Homo sapiens) [compound 260]	+++ (>50 = +++)
261 (MTEGSTVNTEY; listed as Homo sapiens) [compound 261]	++++ (>75% = ++++)
262 (NVKHFLNDLY; listed as Homo sapiens) [compound 262]	+++ (>50 = +++)
263 (DCMDTEGSYM; listed as Homo sapiens) [compound 263]	++ (>20% = ++)
264 (YRDPVFVSL; listed as Homo sapiens) [compound 264]	++ (>20% = ++)
265 (LSDIDSRYI; listed as Homo sapiens) [compound 265]	++ (>20% = ++)
266 (LTDSFLLRF; listed as Homo sapiens) [compound 266]	++++ (>75% = ++++)
267 (IVADDTVY; listed as Homo sapiens) [compound 267]	+++ (>50 = +++)
268 (AILHHLYFY; listed as Homo sapiens) [compound 268]	+ (>10% =+)
269 (LPSPAATIWDY; listed as Homo sapiens) [compound 269]	+++ (>50 = +++)
270 (DLKIDLAAQY; listed as Homo sapiens) [compound 270]	++ (>20% = ++)
271 (VAEPPVVCSY; listed as Homo sapiens) [compound 271]	++ (>20% = ++)
272 (IPQDECLRY; listed as Homo sapiens) [compound 272]	+++ (>50 = +++)
273 (CGPNEINHFY; listed as Homo sapiens) [compound 273]	++ (>20% = ++)
274 (YADIHGDLL; listed as Homo sapiens) [compound 274]	+++ (>50 = +++)
275 (ESDEMENLLTY; listed as Homo sapiens) [compound 275]	+++ (>50 = +++)
276 (QITSFASGTSY; listed as Homo sapiens) [compound 276]	+++ (>50 = +++)

Substance	Peptide exchange
277 (LPAPGFLFY; listed as Homo sapiens) [compound 277]	++ (>20% = ++)
278 (AATVKSDIY; listed as Homo sapiens) [compound 278]	++ (>20% = ++)
279 (LMTVLLKY; listed as Homo sapiens) [compound 279]	+++ (>50 = +++)
280 (TTEMVSNESVDY; listed as Homo sapiens) [compound 280]	++++ (>75% = ++++)
281 (YPDLSELLM; listed as Homo sapiens) [compound 281]	++ (>20% = ++)
282 (QAMPSWPTAAY; listed as Homo sapiens) [compound 282]	++ (>20% = ++)
283 (ETILVSSSY; listed as Homo sapiens) [compound 283]	++ (>20% = ++)
284 (TCSHTFVYY; listed as Homo sapiens) [compound 284]	++ (>20% = ++)
285 (VLPHHSEGACVY; listed as Homo sapiens) [compound 285]	+++ (>50 = +++)
286 (ATDMEGNLNY; listed as Homo sapiens) [compound 286]	+++ (>50 = +++)
287 (ENSIEDLQY; listed as Homo sapiens) [compound 287]	+++ (>50 = +++)
288 (TEEKFVSY; listed as Homo sapiens) [compound 288]	+ (>10% =+)
289 (YTSHEDIGY; listed as Homo sapiens) [compound 289]	++++ (>75% = ++++)
290 (GQFTGTAGACRY; listed as Homo sapiens) [compound 290]	++ (>20% = ++)
291 (TSDVTGSLTY; listed as Homo sapiens) [compound 291]	++++ (>75% = ++++)
292 (VLDFAPPGASAY; listed as Homo sapiens) [compound 292]	++++ (>75% = ++++)
294 (MMEMEGMY; listed as Homo sapiens) [compound 294]	+++ (>50 = +++)
295 (GQRLDEAMISY; listed as Homo sapiens) [compound 295]	+++ (>50 = +++)
296 (HMLAAMAY; listed as Homo sapiens) [compound 296]	++ (>20% = ++)
297 (RLDEAMISY; listed as Homo sapiens) [compound 297]	+++ (>50 = +++)

Substance	Peptide exchange
298 (KFDVINHYF; listed as Homo sapiens) [compound 298]	++ (>20% = ++)
299 (EVDSVALSL; listed as Homo sapiens) [compound 299]	++ (>20% = ++)
300 (VSINPNSGDIY; listed as Homo sapiens) [compound 300]	+++ (>50 = +++)
301 (ESQTCASDY; listed as Homo sapiens) [compound 301]	+++ (>50 = +++)
302 (FYLSTPENYHY; listed as Homo sapiens) [compound 302]	+++ (>50 = +++)
303 (GFGGLSSQGVYY; listed as Homo sapiens) [compound 303]	+++ (>50 = +++)
304 (FSENLIYTYI; listed as Homo sapiens) [compound 304]	++ (>20% = ++)
305 (YADLLIYTY; listed as Homo sapiens) [compound 305]	++++ (>75% = ++++)
306 (KSFETTVRY; listed as Homo sapiens) [compound 306]	++ (>20% = ++)
307 (DTDDRELRY; listed as Homo sapiens) [compound 307]	+++ (>50 = +++)
308 (ELAAGQVVY; listed as Homo sapiens) [compound 308]	+ (>10% =+)
309 (EVDRNLIQY; listed as Homo sapiens) [compound 309]	+++ (>50 = +++)
310 (KAFQELGVRY; listed as Homo sapiens) [compound 310]	++ (>20% = ++)
311 (TVTDGTHTDFY; listed as Homo sapiens) [compound 311]	++ (>20% = ++)
312 (VTDGINPLI; listed as Homo sapiens) [compound 312]	++ (>20% = ++)
313 (VTDGTHTDFY; listed as Homo sapiens) [compound 313]	+++ (>50 = +++)
314 (PPEANSLQGALY; listed as Homo sapiens) [compound 314]	++ (>20% = ++)
315 (VLKIELETY; listed as Homo sapiens) [compound 315]	+++ (>50 = +++)
316 (YTCEECGQAF; listed as Homo sapiens) [compound 316]	++ (>20% = ++)
